According to article PMC128837 (BMC Biochemistry, 2002):

Molecular target: T1, HA-Pop1p/His-Myc-Pop2p complexes (S. pombe, UniProt P87060 1-775; O14170 1-703)
T1 sequence 1: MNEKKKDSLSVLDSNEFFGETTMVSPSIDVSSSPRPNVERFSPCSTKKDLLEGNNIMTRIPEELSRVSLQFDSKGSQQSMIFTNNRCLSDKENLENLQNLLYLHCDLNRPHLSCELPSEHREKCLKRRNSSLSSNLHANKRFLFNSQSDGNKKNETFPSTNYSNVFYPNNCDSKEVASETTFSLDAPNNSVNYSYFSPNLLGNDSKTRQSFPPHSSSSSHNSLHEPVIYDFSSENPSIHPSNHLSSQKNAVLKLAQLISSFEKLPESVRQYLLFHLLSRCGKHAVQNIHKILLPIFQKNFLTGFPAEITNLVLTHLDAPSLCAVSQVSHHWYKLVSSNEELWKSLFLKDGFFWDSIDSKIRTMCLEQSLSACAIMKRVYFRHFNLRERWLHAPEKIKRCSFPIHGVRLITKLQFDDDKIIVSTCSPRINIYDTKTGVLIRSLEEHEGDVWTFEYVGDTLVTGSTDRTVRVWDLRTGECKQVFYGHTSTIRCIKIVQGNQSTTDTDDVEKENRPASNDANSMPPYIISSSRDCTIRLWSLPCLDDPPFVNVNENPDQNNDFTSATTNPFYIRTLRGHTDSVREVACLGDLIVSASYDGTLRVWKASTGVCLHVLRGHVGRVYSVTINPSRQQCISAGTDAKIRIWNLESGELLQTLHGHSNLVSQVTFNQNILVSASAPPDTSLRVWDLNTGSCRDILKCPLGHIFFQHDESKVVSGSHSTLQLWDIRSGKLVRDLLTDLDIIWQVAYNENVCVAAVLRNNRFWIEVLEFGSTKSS
T1 sequence 2: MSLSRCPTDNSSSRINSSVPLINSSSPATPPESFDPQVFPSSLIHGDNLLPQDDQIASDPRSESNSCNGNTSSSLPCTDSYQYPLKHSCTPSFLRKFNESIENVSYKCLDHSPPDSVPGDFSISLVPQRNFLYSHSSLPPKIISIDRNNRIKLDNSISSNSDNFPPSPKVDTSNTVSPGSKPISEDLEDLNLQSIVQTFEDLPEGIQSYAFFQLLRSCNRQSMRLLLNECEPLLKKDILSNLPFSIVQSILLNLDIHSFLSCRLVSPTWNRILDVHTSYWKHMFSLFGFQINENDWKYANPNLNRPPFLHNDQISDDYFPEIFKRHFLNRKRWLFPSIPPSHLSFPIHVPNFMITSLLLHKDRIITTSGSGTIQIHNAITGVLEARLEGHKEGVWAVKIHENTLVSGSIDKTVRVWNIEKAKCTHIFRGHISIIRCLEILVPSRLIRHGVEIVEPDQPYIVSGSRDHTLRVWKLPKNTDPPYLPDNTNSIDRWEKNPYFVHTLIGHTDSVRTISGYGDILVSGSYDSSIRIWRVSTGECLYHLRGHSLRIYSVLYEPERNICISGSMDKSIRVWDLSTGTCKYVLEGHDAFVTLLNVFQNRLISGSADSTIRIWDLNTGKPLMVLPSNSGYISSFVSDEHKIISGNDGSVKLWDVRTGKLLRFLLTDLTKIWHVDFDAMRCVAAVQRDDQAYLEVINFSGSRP
Assay: pull-down

B1: bacterially expressed, phosphorylated Rum1p (natural protein)
chain: MEPSTPPMRGLCTPSTPESPGSFKGVIDASLEGNSSIMIDEIPESDLPAPQVSTFPPTPAKTPKKQLLPNLMLQDRSNSLERCMEEDREHNPFLSSSDNQLLSRKKRKPTPPPSDGLYYVFRGKRIKKSFRPGTDLSTFKPKLLFADSAPSSSSDNPTSSVDLNDYSQIGILPPNLNSIGNKMFSLKSRVPSSSSGSFVAPPPQMRLPAYSSPQKSRSNTKDENRHNLLR
modifications: phosphorylated by Cdc2p/Cig1p complexes with radiolabeled ATP; residues not stated for this preparation
B1: binds.
